Source: patent publication US20190388506A1

Key:
C3b (purified) = C3b (purified) (UniProt P01024); test: cell-based or functional assay
[1] = target: C3 convertase (C3bBb) (human) (UniProt P01024); test: cell-based or functional assay
Sequence of C3 convertase (C3bBb) (human) (P01024 749-1663, chain 1 of 2): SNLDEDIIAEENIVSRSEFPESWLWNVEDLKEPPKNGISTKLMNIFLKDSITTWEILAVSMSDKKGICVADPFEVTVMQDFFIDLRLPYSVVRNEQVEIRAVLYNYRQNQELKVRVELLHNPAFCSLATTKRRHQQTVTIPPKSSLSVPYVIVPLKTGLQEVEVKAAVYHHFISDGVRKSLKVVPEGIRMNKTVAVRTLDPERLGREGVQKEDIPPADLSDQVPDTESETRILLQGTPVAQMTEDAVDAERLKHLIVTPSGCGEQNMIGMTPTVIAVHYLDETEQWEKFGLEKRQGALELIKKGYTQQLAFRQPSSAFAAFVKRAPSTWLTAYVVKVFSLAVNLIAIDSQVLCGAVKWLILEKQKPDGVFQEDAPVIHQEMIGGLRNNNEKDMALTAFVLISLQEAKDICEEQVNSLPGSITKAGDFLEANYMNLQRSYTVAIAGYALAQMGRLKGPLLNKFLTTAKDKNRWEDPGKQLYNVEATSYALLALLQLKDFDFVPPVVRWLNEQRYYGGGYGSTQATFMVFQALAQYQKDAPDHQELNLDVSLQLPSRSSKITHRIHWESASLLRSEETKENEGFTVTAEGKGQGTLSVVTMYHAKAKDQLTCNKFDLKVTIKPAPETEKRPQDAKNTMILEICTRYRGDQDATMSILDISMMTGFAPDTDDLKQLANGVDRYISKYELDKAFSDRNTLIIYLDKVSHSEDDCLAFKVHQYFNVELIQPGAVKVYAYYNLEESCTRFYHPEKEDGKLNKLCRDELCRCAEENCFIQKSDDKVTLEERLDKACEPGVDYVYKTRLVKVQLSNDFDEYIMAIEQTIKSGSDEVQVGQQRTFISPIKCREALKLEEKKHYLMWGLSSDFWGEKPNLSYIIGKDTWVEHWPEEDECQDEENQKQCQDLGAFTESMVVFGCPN
Sequence of C3 convertase (C3bBb) (human) (P00751 260-764, chain 2 of 2, further chain): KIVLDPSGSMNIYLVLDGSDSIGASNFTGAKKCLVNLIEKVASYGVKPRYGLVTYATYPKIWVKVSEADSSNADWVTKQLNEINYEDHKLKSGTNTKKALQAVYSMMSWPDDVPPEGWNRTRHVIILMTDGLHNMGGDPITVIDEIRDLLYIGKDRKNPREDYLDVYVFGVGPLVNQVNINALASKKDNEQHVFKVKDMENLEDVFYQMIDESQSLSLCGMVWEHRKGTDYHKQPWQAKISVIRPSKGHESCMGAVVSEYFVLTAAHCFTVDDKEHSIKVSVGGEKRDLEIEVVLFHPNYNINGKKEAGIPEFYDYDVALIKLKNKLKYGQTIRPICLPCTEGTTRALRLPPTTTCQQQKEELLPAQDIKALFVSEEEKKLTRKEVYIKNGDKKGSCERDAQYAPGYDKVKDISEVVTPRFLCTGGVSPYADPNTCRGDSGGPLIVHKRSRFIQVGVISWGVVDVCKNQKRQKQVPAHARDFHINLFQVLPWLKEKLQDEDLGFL

Sequence of C3b (purified) (P01024 749-1663, chain 1 of 2): as the sequence (P01024 749-1663, chain 1 of 2) above
Sequence of C3b (purified) (P01024 23-667, chain 2 of 2): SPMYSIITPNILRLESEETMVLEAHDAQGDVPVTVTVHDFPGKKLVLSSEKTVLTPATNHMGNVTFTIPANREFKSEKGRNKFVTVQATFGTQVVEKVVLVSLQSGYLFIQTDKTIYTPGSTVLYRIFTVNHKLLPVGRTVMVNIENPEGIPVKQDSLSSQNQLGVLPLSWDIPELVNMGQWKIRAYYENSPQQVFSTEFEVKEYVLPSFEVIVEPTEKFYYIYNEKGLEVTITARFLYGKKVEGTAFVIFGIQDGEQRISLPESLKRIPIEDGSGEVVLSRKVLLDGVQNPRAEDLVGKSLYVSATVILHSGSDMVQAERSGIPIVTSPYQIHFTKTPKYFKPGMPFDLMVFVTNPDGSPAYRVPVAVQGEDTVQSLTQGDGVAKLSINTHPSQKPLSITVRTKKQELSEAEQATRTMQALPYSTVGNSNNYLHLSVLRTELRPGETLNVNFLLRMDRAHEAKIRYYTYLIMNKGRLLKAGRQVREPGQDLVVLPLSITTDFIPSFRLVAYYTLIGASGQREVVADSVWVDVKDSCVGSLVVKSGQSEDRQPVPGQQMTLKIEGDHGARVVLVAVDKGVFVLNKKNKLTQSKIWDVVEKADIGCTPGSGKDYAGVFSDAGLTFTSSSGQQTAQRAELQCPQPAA

Row | F1 cofactor (%) (C3b (purified)) | Anti-C3 convertase (EC50 µg/ml) [1] | Substance
1 | 100% |  | FH fragment "1NT7" (SCR 1 to 7 of human factor H) (from UniProt P08603 19-447)
2 | 100% |  | FH fragment "1NT18" (SCR 1 to 18 of human factor H) (from UniProt P08603 19-1102)
3 | 0% |  | FH fragment "7CT18" (SCR 7 to 18 of human factor H) (from UniProt P08603 389-1102)
4 | 0% |  | FH fragment "7CT20" (SCR 7 to 20 of human factor H) (from UniProt P08603 389-1231)
5 | 0% |  | FH fragment "8CT20" (SCR 8 to 20 of human factor H) (from UniProt P08603 448-1231)
6 | 100% |  | FH fragment "SCR1-4" (SCR 1 to 4 of human factor H)
7 | 100% | 0.093 µg/mL | FH fragment "SCR1-6" (SCR 1 to 6 of human factor H) (from UniProt P08603 19-388)
8 | 0% |  | FH fragment "SCR6-8" (SCR 6 to 8 of human factor H)
